Measured values: patent US20240209022A1, “NOVEL PEPTIDE HAVING ANTI-INFLAMMATORY AND TISSUE REGENERATIVE ACTIONS” (KOREA RESEARCH INSTITUTE OF BIOSCIENCE AND BIOTECHNOLOGY, priority 2020, published 2024)

Assays:
[1] = system: MIA-induced degenerative arthritis model; assay: MIA-induced degenerative arthritis model; assay type: in vivo, C57BL/6J mice
Experimental: As a degenerative arthritis model, 9-week-old specific pathogen free (SPF) male C57BL/6J mice were anesthetized, the area around the right knee joint was cleanly shaved, and 10 μL of MIA solution (monosodium iodoacetate 0.5 mg in 10 μL 0.9% sterile saline) was injected into the knee joint cavity to induce arthritis. From 3 days before MIA (monosodium iodoacetate) solution injection, Amuc_1409 or PEP001, PEP002, PEP003, PEP004, PEP005, PEP006, PEP007, PEP008, PEP009, PEP010, PEP011, PEP012, or PEP013 was dissolved in PBS buffer at a concentration of 6.7 μM and then injected into the mouse peritoneal cavity at 150 μL per animal once a day at the same time. On day 3 (0 days) after administration of Amuc_1409 or PEP001 to PEP013, an additional intraperitoneal injection was given 1 hour before MIA injection, the drug was intraperitoneally injected once a day at the same time after MIA injection, and the experiment was terminated on the 30th day after MIA injection. In the control group, the same volume of PBS buffer was injected intraperitoneally. After MIA injection, the diameter of the knee joint was measured using a caliper for 7 days at 2-day intervals (0, 1, 3, 5, and 7 days) to evaluate swelling caused by inflammatory changes of the joint. […] At this time, the weight bearing on the limb was lower as arthritis was more severe. The weight-bearing weight (g) of each of both paws was measured, and in this experiment, the value was expressed as the ratio (%) of the right hind limb with arthritis to the total hind limb. Weight bearing ratio (%)=weight-bearing weight of right hind limb with arthritis (g)/weight-bearing weight of both hind limbs (g)×100 After termination of the experiment, the test animals were sacrificed, then the knee joint tissue of the mouse was fixed with 10% neutral buffered formalin, and the bone was decalcified with a 0.5 M EDTA solution. Next, the joint tissue was embedded in paraffin to prepare a 5 μm joint section, and Safranin O staining was performed to histopathologically analyze the degree of damage to the cartilage tissue. At this time, the degree of damage to the cartilage tissue was evaluated by examining the degree of safranin O staining of the sections and scored according to OARSI (Osteoarthritis Research Society International grade) guidelines. The scoring criteria according to the OARSI guidelines are as follows (Table 1). [table]

[2] = system: animal model of metabolic disease accompanied by obesity/diabetes and chronic inflammation; assay: High-fat diet obesity/diabetic metabolic disease model; assay type: in vivo, C57BL/6J mice
Experimental: An animal model of metabolic disease accompanied by obesity/diabetes and chronic inflammation was induced by feeding a high-fat diet.
The experiment in the groups administered with Amuc_1409 or PEP001 to PEP005 was performed using 8-week-old SPF male C57BL/6J mice, and the metabolic disease accompanied by obesity/diabetes and chronic inflammation was induced by ad libitum feeding of a high-fat diet for 45 weeks or 8 weeks. Specifically, mice fed a high-fat diet for 45 weeks were fed a high-fat diet for an additional 3 weeks, and Amuc_1409 was dissolved in PBS buffer at a concentration of 2.4 μM and then orally administered to the mice by 150 μL per animal at the same time once a day until the end of the experiment, or mice fed a high-fat diet for 8 weeks were fed a high-fat diet for an additional 3 weeks, and PEP001, PEP002, PEP003, PEP004, or PEP005 was dissolved in PBS buffer at a concentration of 2.4 μM and then orally administered to the mice by 150 μL per animal at the same time once a day until the end of the experiment. To the control group, PBS buffer was orally administered in the same manner.
For the experiment in the groups administered with PEP006 to PEP013, 8-week-old male C57BL/6J mice were used, and the metabolic disease accompanied by obesity/diabetes and chronic inflammation was induced by ad libitum feeding of a high-fat diet for 32, 50, or 53 weeks. Mice fed a high-fat diet for 32 weeks were fed a high-fat diet for an additional 3 weeks, and a novel tetrapeptide PEP006 was dissolved in PBS buffer at a concentration of 0.15 μg/150 μL (PEP006) and then orally administered to the mice by 150 μL per animal at the same time until the end of the test, mice fed a high-fat diet for 50 weeks were fed a high-fat diet for an additional 3 weeks, and a novel tetrapeptide PEP007, PEP008, PEP009, or PEP010 was dissolved in PBS buffer at a concentration of 0.2 μg/150 μL (PEP007 to PEP013) and then orally administered to the mice by 150 μL per animal at the same time until the end of the test, and mice fed a high-fat diet for 53 weeks were fed a high-fat diet for an additional 3 weeks, and a novel […] PEP011, PEP012, or PEP013 was dissolved in PBS buffer at a concentration of 0.2 μg/150 μL (PEP007 to PEP013) and then orally administered to the mice by 150 μL per animal at the same time until the end of the test. To the control group, PBS buffer was orally administered in the same manner.
For all animals, general symptoms were observed immediately before administration at the start of administration, and the body weight was measured until the end of the test after group separation.
Insulin (Humalog, 1 unit/kg) was intraperitoneally injected into mice fasted for 4 hours at 2 weeks after the start of test substance administration (2 weeks in groups administered with Amuc_1409 and PEP001 to PEP005 and 3 weeks in groups administered with PEP006 to PEP013), and then blood glucose at 30 minutes, 60 minutes, 90 minutes, and 120 minutes was measured from a small amount of blood obtained through a wound at the tip of the tail using ACCU-CHECK (Roche), thereby performing an insulin tolerance test (ITT).
At the end of the test, fasting blood glucose was measured from a small amount of blood obtained through a wound at the tip of the tail of the mouse fasted for 16 hours using ACCU-CHECK, and blood was collected from the orbital venous plexus using a heparin-treated capillary tube. The collected blood was immediately centrifuged at 10,000 rpm (4° C.) for 10 minutes to separate plasma, and then subjected to analysis of total cholesterol (TC) and low-density lipoprotein cholesterol (LDL-C), which are blood abnormal lipid indicators, using an automated blood biochemical analyzer.

[3] = system: collagen induced arthritis (CIA) model; assay: Collagen induced arthritis (CIA) rheumatoid arthritis model; assay type: in vivo, DBA/1J mice; settings: vs PBS buffer group

B1: Amuc_1409: SEQ ID NO: 15, functional fragment obtained by eliminating the leader sequence from SEQ ID NO: 14; protein derived from Akkermansia muciniphila (protein)
chain: IPESSVPAAAVSSIKGAYPNAGPIEWDSEMHGMERIYEAEFRINGFQFDVKIAPDGKIVRIKEEIAASSLPEAVRASVLKRYPGCRIKEAEKITEGELVRYKVEVADSRDDYDVLIAPDGNILHVDR
modifications: Amuc_1409_fragment
notes: protein derived from Akkermansia muciniphila
[1]; 2 weeks and 4 weeks after MIA injection, vs PBS buffer group
  weight bearing ratio: significantly increased
[1]; after termination of the experiment
  histopathological findings in knee joint tissue, safranin O staining: only a slight loss of safranin O was observed in the cartilage zone and the overall cartilage morphology was maintained
[1]; day 1 after MIA injection, vs PBS buffer group, i.p.
  diameter of the knee joint: significantly decreased
[1]; days 3, 5, and 7 after MIA injection, vs PBS buffer group
  thickness of the knee joint: significantly decreased
[1]; vs PBS buffer group
  degree of cartilage destruction by OARSI score: significantly decreased
[2]; after fasting for 16 hours at the end of the test
  fasting blood glucose: significantly decreased
[2]; after insulin administration, time as stated in the value, vs PBS buffer group
  blood glucose in insulin resistance experiment (ITT): decreased from 30 minutes to 120 minutes after insulin administration
[2]; oral, 3 weeks on high-fat diet, vs PBS buffer group
  body weight: decreased from the initial body weight
[2]; until 120 minutes after insulin
  maintenance of the decreased blood glucose in insulin resistance experiment: significantly maintained until 120 minutes
[2]; vs PBS buffer group
  AUC value of the insulin resistance experiment: decreased close to a significant level
  abdominal fat: significantly decreased
[3]; after day 30 until the experiment end day
  arthritis index: significantly decreased
[3]; at the end of the experiment
  thickness of the ankle joint: significantly decreased
[3]; day 30 after the first CII injection
  arthritis index: decreased close to a significant level
[3]
  histopathological changes in hind paw tissue (H&E): inflammatory cell infiltration, synovial proliferation, pannus formation: significantly diminished
  quantitative histopathological arthritis index: significantly decreased or tended to decrease
  swelling of the hind paws by macrophotography: reduced overall
